Legend:
[1] = biological target: SARS-CoV-2 Omicron BA.2 spike protein (authentic virus / MLV pseudovirus) (SARS-CoV-2); assay: cell-based or functional assay
[2] = biological target: SARS-CoV-2 Omicron BA.4.1 spike protein (authentic virus) (SARS-CoV-2); assay: cell-based or functional assay
[3] = biological target: SARS-CoV-2 Omicron BA.1 spike protein (authentic virus / MLV pseudovirus) (SARS-CoV-2); assay: cell-based or functional assay
[4] = biological target: SARS-CoV-2 Delta spike protein (authentic virus / MLV pseudovirus) (SARS-CoV-2); assay: cell-based or functional assay
[5] = biological target: SARS-CoV-2 Omicron BA.2.75 spike glycoprotein (lentivirus-based pseudovirus) (SARS-CoV-2); assay: cell-based or functional assay
[6] = biological target: SARS-CoV-2 Omicron XBB.1.5 spike protein, Monogram pseudovirus (SARS-CoV-2) (UniProt P0DTC2); assay: cell-based or functional assay
[7] = biological target: SARS-CoV-2 Beta spike protein (MLV pseudovirus) (SARS-CoV-2); assay: cell-based or functional assay
[8] = biological target: SARS-CoV-2 Omicron XBB spike protein, Monogram pseudovirus (SARS-CoV-2) (UniProt P0DTC2); assay: cell-based or functional assay
[9] = biological target: SARS-CoV-2 Omicron BA.5 spike glycoprotein (lentivirus-based pseudovirus) (SARS-CoV-2); assay: cell-based or functional assay
[10] = biological target: SARS-CoV-2 Omicron BN.1 spike protein, Monogram pseudovirus (SARS-CoV-2) (UniProt P0DTC2); assay: cell-based or functional assay
[11] = biological target: SARS-CoV-2 Omicron XBB.1 spike protein, Monogram pseudovirus (SARS-CoV-2) (UniProt P0DTC2); assay: cell-based or functional assay
[12] = biological target: SARS-CoV-2 B.1.617.2 (Delta) spike protein, Monogram pseudovirus (SARS-CoV-2) (UniProt P0DTC2); assay: cell-based or functional assay
[13] = biological target: SARS-CoV-2 Omicron BA.2.75 spike protein, Monogram pseudovirus (SARS-CoV-2) (UniProt P0DTC2); assay: cell-based or functional assay
[14] = biological target: SARS-CoV-2 Beta RBD (SARS-CoV-2); assay: bio-layer interferometry (BLI, Octet), monovalent Fab affinity

Chain of ADI-58125 (antibody) (VH): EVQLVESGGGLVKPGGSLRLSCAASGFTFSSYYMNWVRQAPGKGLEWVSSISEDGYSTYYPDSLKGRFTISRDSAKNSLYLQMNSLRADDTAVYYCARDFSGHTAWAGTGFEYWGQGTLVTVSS
Chain of ADI-58125 (antibody) (VL): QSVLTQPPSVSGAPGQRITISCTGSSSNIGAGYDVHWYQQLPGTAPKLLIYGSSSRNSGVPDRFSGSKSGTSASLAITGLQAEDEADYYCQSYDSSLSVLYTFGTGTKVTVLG
Chain of VYD224 (antibody) (VH): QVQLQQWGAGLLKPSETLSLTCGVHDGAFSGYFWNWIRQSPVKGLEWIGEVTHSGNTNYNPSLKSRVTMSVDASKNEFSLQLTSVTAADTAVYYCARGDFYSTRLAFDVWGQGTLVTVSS
Chain of VYD224 (antibody) (VL): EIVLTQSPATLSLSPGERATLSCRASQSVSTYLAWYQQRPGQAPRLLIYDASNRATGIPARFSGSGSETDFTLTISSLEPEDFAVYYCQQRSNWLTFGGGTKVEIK
Chain of VYD222 (antibody) (VH): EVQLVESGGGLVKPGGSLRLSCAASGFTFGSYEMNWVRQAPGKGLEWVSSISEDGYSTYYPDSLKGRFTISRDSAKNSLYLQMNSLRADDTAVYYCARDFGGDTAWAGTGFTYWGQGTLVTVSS
Chain of VYD222 (antibody) (VL): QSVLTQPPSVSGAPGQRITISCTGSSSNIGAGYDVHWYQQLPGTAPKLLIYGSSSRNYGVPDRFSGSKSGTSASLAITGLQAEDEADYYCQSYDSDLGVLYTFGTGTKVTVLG
Chain of VYD223 (antibody) (VH): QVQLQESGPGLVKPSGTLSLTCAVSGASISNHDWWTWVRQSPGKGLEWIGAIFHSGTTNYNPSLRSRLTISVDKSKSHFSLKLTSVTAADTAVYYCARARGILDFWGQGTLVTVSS
Chain of VYD223 (antibody) (VL): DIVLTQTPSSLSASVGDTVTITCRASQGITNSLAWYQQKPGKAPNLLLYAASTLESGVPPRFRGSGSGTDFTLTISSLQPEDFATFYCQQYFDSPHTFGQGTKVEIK

LY-CoV1404 (antibody)
IC50, authentic virus neutralization [1]: 10 ng/mL
IC90, authentic virus neutralization [1]: 69 ng/mL
IC50, authentic virus neutralization [2]: 26 ng/mL
IC90, authentic virus neutralization [2]: 100 ng/mL
IC50, authentic virus neutralization [3]: 4 ng/mL
IC90, authentic virus neutralization [3]: 152 ng/mL
IC50, authentic virus neutralization [4]: 27 ng/mL
IC90, authentic virus neutralization [4]: 96 ng/mL

VYD222 (antibody)
IC50, lentivirus-based pseudovirus neutralization [5]: 100 ng/mL
IC50, MLV-based pseudovirus neutralization [1]: < 0.0001 ng/mL
IC50, authentic virus neutralization [1]: 8 ng/mL
IC90, authentic virus neutralization [1]: 231 ng/mL
IC50, PhenoSense pseudovirus neutralization [6]: 81 ng/mL
IC50, MLV-based pseudovirus neutralization [7]: < 0.0001 ng/mL
IC50, authentic virus neutralization [2]: 41 ng/mL
IC90, authentic virus neutralization [2]: 524 ng/mL
IC50, PhenoSense pseudovirus neutralization [8]: 152 ng/mL
IC50, lentivirus-based pseudovirus neutralization [9]: 30 ng/mL
IC50, PhenoSense pseudovirus neutralization [10]: 2110 ng/mL
IC50, PhenoSense pseudovirus neutralization [11]: 121 ng/mL
IC50, PhenoSense pseudovirus neutralization [12]: 4.2 ng/mL
IC50, MLV-based pseudovirus neutralization [3]: < 0.0001 ng/mL
IC50, authentic virus neutralization [3]: 26 ng/mL
IC90, authentic virus neutralization [3]: 143 ng/mL
IC50, MLV-based pseudovirus neutralization [4]: < 0.0001 ng/mL
IC50, authentic virus neutralization [4]: 16 ng/mL
IC90, authentic virus neutralization [4]: 103 ng/mL
IC50, PhenoSense pseudovirus neutralization [13]: 1360 ng/mL

ADI-58125 (Fab)
Kd [14]: 6.4 nM

VYD224 (antibody)
IC50, lentivirus-based pseudovirus neutralization [5]: 10 ng/mL
IC50, authentic virus neutralization [1]: 16 ng/mL
IC90, authentic virus neutralization [1]: 54 ng/mL
IC50, PhenoSense pseudovirus neutralization [6]: > 5000 ng/mL
IC50, authentic virus neutralization [2]: 126 ng/mL
IC90, authentic virus neutralization [2]: 359 ng/mL
IC50, PhenoSense pseudovirus neutralization [8]: > 5000 ng/mL
IC50, lentivirus-based pseudovirus neutralization [9]: 80 ng/mL
IC50, PhenoSense pseudovirus neutralization [10]: 1.5 ng/mL
IC50, PhenoSense pseudovirus neutralization [11]: > 5000 ng/mL
IC50, PhenoSense pseudovirus neutralization [12]: 1 ng/mL
IC50, authentic virus neutralization [3]: 10 ng/mL
IC90, authentic virus neutralization [3]: 23 ng/mL
IC50, authentic virus neutralization [4]: 6 ng/mL
IC90, authentic virus neutralization [4]: 14 ng/mL
IC50, PhenoSense pseudovirus neutralization [13]: 4 ng/mL

ADI-58125 (antibody)
IC50, authentic virus neutralization [1]: > 5000 ng/mL
IC90, authentic virus neutralization [1]: > 5000 ng/mL
IC50, authentic virus neutralization [2]: > 5000 ng/mL
IC90, authentic virus neutralization [2]: > 5000 ng/mL
IC50, authentic virus neutralization [3]: > 5000 ng/mL
IC90, authentic virus neutralization [3]: > 5000 ng/mL
IC50, authentic virus neutralization [4]: 49 ng/mL
IC90, authentic virus neutralization [4]: 156 ng/mL

CoV2-2130 (antibody)
IC50, authentic virus neutralization [1]: 11 ng/mL
IC90, authentic virus neutralization [1]: 37 ng/mL
IC50, authentic virus neutralization [2]: 88 ng/mL
IC90, authentic virus neutralization [2]: 587 ng/mL
IC50, authentic virus neutralization [3]: > 5000 ng/mL
IC90, authentic virus neutralization [3]: > 5000 ng/mL
IC50, authentic virus neutralization [4]: 61 ng/mL
IC90, authentic virus neutralization [4]: 136 ng/mL

VYD223 (antibody)
IC50, authentic virus neutralization [1]: 16 ng/mL
IC90, authentic virus neutralization [1]: 84 ng/mL
IC50, authentic virus neutralization [2]: 63 ng/mL
IC90, authentic virus neutralization [2]: 437 ng/mL
IC50, authentic virus neutralization [3]: 15 ng/mL
IC90, authentic virus neutralization [3]: 68 ng/mL
IC50, authentic virus neutralization [4]: 13 ng/mL
IC90, authentic virus neutralization [4]: 60 ng/mL

— patent publication US20260078171A1
